Results published in patent publication US20090169546A1.

T1: recombinant HMG1 produced in E. coli as calmodulin binding protein (CBP) fusion (human)
T1 chain: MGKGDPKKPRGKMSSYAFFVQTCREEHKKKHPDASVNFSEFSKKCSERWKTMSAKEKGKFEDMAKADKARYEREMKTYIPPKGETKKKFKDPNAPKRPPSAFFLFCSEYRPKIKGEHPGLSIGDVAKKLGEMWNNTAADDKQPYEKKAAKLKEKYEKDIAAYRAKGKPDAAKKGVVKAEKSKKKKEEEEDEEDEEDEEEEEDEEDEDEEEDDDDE

B1: anti-HMG1 antibody G2 (antibody, V domains shown)
VH: EVQLLESGGGLVQPGGSLRLSCAASGFTFSWYKMQWVRQAPGKGLEWVSGISPSGGSTAYADSVKGRFTISRDNSKNTLYLQMNSLRAEDTAVYYCAKMGLFNTGNSYVDYWGQGTLVTVSS
VL: AQSELTQPPSVSEAPGQRVTISCSGSTSNIGNNAVIWYQQLPGKAPKLLIYYDDLLPSGVSDRFSGSKSGTSGSLAISGLQSEDEADYYCASWDDNLNGPLFGGGTKLTVL
B2: anti-HMG1 antibody S17 (antibody, V domains shown)
VH: EVQLLESGGGLVQPGGSLRLSCAASGFTFSYYDMHWVRQAPGKGLEWVSRISPSGGYTWYADSVKGRFTISRDNSKNTLYLQMNSLRAEDTAVYYCTRGRYTSGWHEYFDPWGQGTLVTVSS
VL: AQDIQMTQSPSSLSASVGDRVTITCRASQSIGTYLNWYQQKPGTAPKVLIYAASSLQSGVPSRFSGSGSGTDFTLTISSLQPEDFSTYYCQQSYNTPRTFGQGTKLEIK
B3: anti-HMG1 antibody G20 (antibody, V domains shown)
VH: EVQLLESGGGLVQPGGSLRLSCAASGFTFSWYDMFWVRQAPGKGLEWVSWISPSGGYTKYADSVKGRFTISRDNSKNTLYLQMNSLRAEDTAMYYCARSGLDYYDSSGYLDAFDIWGQGTMVTVSS
VL: AQDIQMTQSPSSVSASVGDRVTITCRASQDVSIWLAWYQQKPGKAPKLLIFGASRLQSGVPSRFSGSRSGADFTLTIDSVQPEDFASYYCQQADSFPLTFGGGTKVEIK

Target: T1, recombinant HMG1 produced in E. coli as …
Test: BIAcore 3000; mAb amine-coupled to CM5, HMG1 injected in two-fold dilutions; steady-state model
Conditions: remark: other sources report otherwise

Binder | Kd [nM]
B1 | 101
B2 | 331
B3 | 114
